Measurements from the nanobody polyreactivity screen of Harvey et al. (2022).

Experiment: yeast display, Sf9 membrane polyspecificity reagent, FACS + sequencing; frameworks hold sequencing errors
Method in brief: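 After 36–48 hours of galactose induction, yeast (Saccharomyces cerevisiae BJ5465) displaying a synthetic nanobody library were stained at 4 °C for 1 hour with 10% biotinylated, detergent-solubilized Sf9 membrane reagent. Streptavidin microbeads enriched the stained cells before FACS sorting into low and high (top ~1%) gates on anti-HA and streptavidin fluorescence. Each clone's polyreactivity label reflects its gate of origin.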

| Sequence | polyreactivity (PSR sort gate) |
| --- | --- |
| QVQLVESGGGLVQAGGSLRLSCAASGRTFAIYVMGWYRHAPGKERELVAAITRVGSTYADSVKGRFTISRDNAKNTVYLQMNSLKPEDTAVYYCAAVSGVRSGPWRYDYWGQGTQVTVSS | high polyreactivity |
| QVQLVESGGGLVQAGGSLRLSCAASGRTFAIYVMGWYRQAPGKEMELVAAISRGGSTYYADSVKGRFTISRDNAKNTVYLQMNSLKPEDTAVYYCAAGTGTTSRYYYWGQGTQVTVSS | high polyreactivity |
| QVQLVESGGGLVQAGGSLRLSCAASGRTFAKYAMGWYRQAPGKERELVAAINSSGGSTYYADSVKGRFTISRDNAKNTVYLQMNSLKPEDTAVYYCAALGIGSYRRYSGYDYWGQGTQVTVSS | low polyreactivity |
| QVQLVESGGGLVQAGGSLRLSCAASGRTFANYAMGWYRQAPGKERELVAAISWSGGSTYYADSVKGRFTISRDNAKNSVYLQMNSLKPEDTAVYYCAALAGRAYGYGYWGQGTQVTVSS | high polyreactivity |
| QVQLVESGGGLVQAGGSLRLSCAASGRTFANYAMGWYTQAPGKERELVAAITSGGRTYYAVSVKGRFTISRDNAKNTVYLQMNSLKPEDTAVYYCAATRYRVYAQNYDYWGQGTQVTVSS | high polyreactivity |
| QVQLVESGGGLVQAGGSLRLSCAASGRTFAQNAMGWYRQAPGKERELVAAITASGSITYYADSVKGRFTISRDNAKNTVYLQMNSLKPEDTAVSYCAARGRYHFFSKYDYWGQGTQVTVSS | high polyreactivity |
| QVQLVESGGGLVQAGGSLRLSCAASGRTFARYAMGWYRPAPGKERELVASITRTGGSTYYADSVKGRFTISRDNAKNTVYFQLNSLKPEDTAVYDCATQSWKVRSKMDYWGQGTQVTVSS | high polyreactivity |
| QVQLVESGGGLVQAGGSLRLSCAASGRTFARYARGWYRPAPGKERELVAAISSSGGSTYYADSVKGRFTISRDNAKNTVYLQMNSLKPEDTSVYYCVTYRNWWYDYWGQGTQVTVSS | high polyreactivity |
| QVQLVESGGGLVQAGGSLRLSCAASGRTFASNAMGWSRQAPGKERELVAAITRGGSTNYADSVKGRFTISRDNAKNTVYLQMNSLKPEDTAVYYCAARLSSGFRSYYYWGQGTQVTVSS | high polyreactivity |
| QVQLVESGGGLVQAGGSLRLSCAASGRTFASNDMGWYRQAPGKERELVADINNGARTYYADSVKGRFTISRDNAKNTVYLQMNSLKPEDTAVYYCNTRSGFYLGDFDYWGQGTQVTVSS | high polyreactivity |
| QVQLVESGGGLVQAGGSLRLSCAASGRTFASYAMGWYRQAPGKERELVAGITSGGNTYYADSVKGRFTISRDNAKNTVYLQMNSLKPEDTAVYYCAADRVYLGLFRYEYWGQGTQVTVSS | high polyreactivity |
| QVQLVESGGGLVQAGGSLRLSCAASGRTFASYDMGWYRQAPGKEREVVAVIRSGGSTKYADSVKGRFTISRDNAKNTVYLQMNSLKPEDTAVYYCARTYAKTYLSVYLFYYWGQGTQVTVSS | low polyreactivity |
| QVQLVESGGGLVQAGGSLRLSCAASGRTFATNAMGWYRQAPGKERELVADISGGGSTYYADSVKGRFTISRDNAKNTVYLQMNSLKPEDTAVYYCAARDYHWFQWYDYWGQGTQVTVSS | low polyreactivity |
| QVQLVESGGGLVQAGGSLRLSCAASGRTFATNAMGWYSQAPGKERELVAGINGSGSTNYADSVKGRFTISRDNAKNTVYLQMNSLKPEDTAVYYCAAYVGLYYRLHYYYWGQGTQVTVSS | low polyreactivity |
| QVQLVESGGGLVQAGGSLRLSCAASGRTFATNARGWYRQAPGKERELVAGINGSGSTNYADSVKGRFTISRDNAKNTVYLQMNSLKPEDTAVYYCAAYVGLYYRLHYYYWGQGTQVTVSS | low polyreactivity |
| QVQLVESGGGLVQAGGSLRLSCAASGRTFAVYAMGWYRQAPGKERELVAAITLGASRTYYADSVKGRFTISRDNAKNTVYLQMNSLKPEDTAVYYCNAVGRRNVDSSLNDYWGQGTQVTVSS | low polyreactivity |
| QVQLVESGGGLVQAGGSLRLSCAASGRTFAWNAMGWYRQAPRKERELVARIRSSGSTYYADSVKGRFTISRDNAKNTVYLQMNSLKPVDTAVYFCAADIRFWYGYYYWGQGTQVTVSS | high polyreactivity |
| QVQLVESGGGLVQAGGSLRLSCAASGRTFAWYAMGRYRQAHGKERELVAVIRRGSGDTYYADSVKARFTISRDNAKNTVYLQMNSLKTEDTAVYYCAAEGRFSFYGGGRTKYSRYDYWGQGTQVTVSS | high polyreactivity |
| QVQLVESGGGLVQAGGSLRLSCAASGRTFAWYAMGWYRQAPGKERELVAAISWSSDTTYYADSVKGRFTITRDNAKNTVYLQMNSLKPEETAVYYCAAVFQGYTRKYYYWGQGTQVTVSS | high polyreactivity |
| QVQLVESGGGLVQAGGSLRLSCAASGRTFAWYAMGWYRQAPGKERELVAVIRRGSGDTYYADSVKGRFTISRDNAKNTVYLQMNSLKPEDTAVYYCAAEGRFSFYGGGRPKYSRYDYWGQGTQVTVSS | high polyreactivity |
| QVQLVESGGGLVQAGGSLRLSCAASGRTFAYNAMGWYRQAPGKERELVAAISRRGGSTFYADSVKGRFTISRDNAKNTVYLQMNSLKPEDTAVYYCARDSYYIGRWLYYWGQGTQVTVSS | high polyreactivity |
| QVQLVESGGGLVQAGGSLRLSCAASGRTFAYNAMGWYRQAPGKERELVAAITFGGGSTYYADSVKGRFTISRDNAKNTVYLQMNSLKPEDTAVYYCTAERGYYYHFGYWGQGTQVTVSS | high polyreactivity |

| Sequence | polyreactivity (PSR sort gate) |
| --- | --- |
| QVQLVESGGGLVQAGGSLRLSCAASGRTFAYYAMGWYRQAPGKERELVAAITQSGGRTYYADSVKGRFTISRDNAKNTVYLQMNSLKPEDTAVDYCAARRISGKWEYDYWGQGTQVTVSS | high polyreactivity |
| QVQLVESGGGLVQAGGSLRLSCAASGRTFCSNAMGWYRPAPGKERELVAAISNGDNTYYADSVKGRFTISRDNAKNTVYLQMNSLKPEDTAVYYCNADYTVYDTEYDYWGQGTQVTVSS | low polyreactivity |
| QVQLVESGGGLVQAGGSLRLSCAASGRTFDFYAMGWYRQAPGKERELVAAITFSTGSTTYADSVKGRFTISRDNAKNTVYLQMNSLKPEDTAVYYCGADGDGWWWSYVDRYDYWGQGTQVTVSS | low polyreactivity |
| QVQLVESGGGLVQAGGSLRLSCAASGRTFDFYVMGWYRHAPGKERELVAAISSGGSTNYADSVKGRFTISRDNAKYTVYLQMNSLKPEDTAVYYCAADPSGDYWGQGTQVTVSS | low polyreactivity |
| QVQLVESGGGLVQAGGSLRLSCAASGRTFDGNAMGWYRQAPGKERELVAAISKRGGTTYYADSVKGRFTISRDNAKNTVYLQMNSLKPEDTAVYYCAAPYNTYSYSEGEYWGQGTQVTVSS | low polyreactivity |
| QVQLVESGGGLVQAGGSLRLSCAASGRTFDGNVMGWYRQAPGKERELVAAITASGGRTYYADSVKGRFTISRDNAKNTVYLQMNSLKPEDTAVYFCAADPTYLRTLRFGSYDYWGQGTQVTVSS | high polyreactivity |
| QVQLVESGGGLVQAGGSLRLSCAASGRTFDGYTMGWYRQAPGKERELVAAIRRSGGSTYYADSVKGRFTISRDNAKNTVYLQINSLNPEDTAVYYCAASWRDIYRHYNVYPYDYWGQGTQVTVSS | low polyreactivity |
| QVQLVESGGGLVQAGGSLRLSCAASGRTFDGYVMGWYRQAPGKERELVAAISWGGSSTYYADSVKGRFTISRDNAKNTVYLQMNSLKPEDTAVYYCAKDTVPYERDYWGQGTQVTVSS | low polyreactivity |
| QVQLVESGGGLVQAGGSLRLSCAASGRTFDINAMGWYRQAPGKERELVAAISGRGGRTYYADSVKGRFTISRDNAKNTVYLQMNSLKPEDSAVYYCAARAQWSSLEYWGQGTQVTVSS | high polyreactivity |
| QVQLVESGGGLVQAGGSLRLSCAASGRTFDLNDMGWYRQAPGKERELVAGINSGGSTKYADSVKGRFTISRDNAKNTVSLQMNSLKPEDTAVYYCATRWPGGSRWPFYLTYDYWGQGTQVTVSS | low polyreactivity |
| QVQLVESGGGLVQAGGSLRLSCAASGRTFDLYAMGWYRQAPGKEREFVAAISWRGGRTYYADSVKGRFTISRDNAKNTVYLQMNSQKPEDTAVYYCAARTGATSRIRFDYWGQGTQVTVSS | low polyreactivity |
| QVQLVESGGGLVQAGGSLRLSCAASGRTFDPNAMGWYRPAPGKERELVAAISSSAGSTYYADSVKGRFTISRDNAKNTVYLQMNSLNPEDPALYFCAAGSGTFVTRYRYGYWGQGTQVTVSS | high polyreactivity |
| QVQLVESGGGLVQAGGSLRLSCAASGRTFDRNAMGWYRQAPGKEREFVAAISYRGASTYADSVKGRFTISRDNAKNTVYLQMNSLKPEDTAVYYCAARVTYYGTSGYYYWGQGTQVTVSS | high polyreactivity |
| QVQLVESGGGLVQAGGSLRLSCAASGRTFDRNAMGWYRQAPGKERELVAAISRGGTTYYADSVKGRFTISRDNAKNTVYLQMNSLKPEDTAVYYCARVGRYRYEWGQGTQVTVSS | high polyreactivity |
| QVQLVESGGGLVQAGGSLRLSCAASGRTFDRNAMGWYRQAPGKERELVAAITSRGGRTYYADSVKGRFTISRDNAKNTVYLQMNSLKPEDTAVYYCNAARGWGYDSWGQGTQVTVSS | high polyreactivity |
| QVQLVESGGGLVQAGGSLRLSCAASGRTFDRNAMGWYRQAPGQERELVAAITSRGGRTYYADSVKGRFTISRDNEKNTVYLQMNSLKPADTAVYYCAADLFSSRVRSNFDYWGQGTQVTVSS | high polyreactivity |
| QVQLVESGGGLVQAGGSLRLSCAASGRTFDRYAMGWYRQAPGKERELVAAITWSGGRTYYADSVKGRFTISRDNAKNTVYLQINSLKPEDTAVYYCAAAPRSYFTSEYWGQGTQVTVSS | low polyreactivity |
| QVQLVESGGGLVQAGGSLRLSCAASGRTFDSNAMGWYRQAPGKERELVAAIYADSVKGRFTISRDNAKNTVYLQMNSLKPEDTAVYYCAAETYSGQTYLGEYDYWGQGTEVTVSS | low polyreactivity |
| QVQLVESGGGLVQAGGSLRLSCAASGRTFDTNAMGWYRQAPGKERELVAAISWSAGRTYYADSVKGRFTISRDNAKNTVYLQMNSLKPEDTAVYYCAARPPFIAYSWQKQGYYWGQGTQVTVSS | low polyreactivity |
| QVQLVESGGGLVQAGGSLRLSCAASGRTFDTYAMGWYRQAPGKEREFVARISYGGGITYYADSVKGRFTISRDNAKNTVYLQMNSLKPEDTAVYYCAARRFRTYDFYYWGQGTQVTVSS | high polyreactivity |
| QVQLVESGGGLVQAGGSLRLSCAASGRTFDVNAMGWYRQAPGKERELVAAIRISGGSTYYADSVKGRFTISRDNAKNTVYLQMNSLKPEDTAVYYCAAYERRYRNAYDYWGQGTQVTVSS | high polyreactivity |
